± gives the standard deviation of the averaged measurements.
Tested on: Saccharomyces cerevisiae
Test: protein stability index of tFT-peptide fusion (C-terminal peptide) (PSI (0-1 scale)); higher = more stable (slower turnover)
Conditions: genetic background: wild type; temperature: 30 C
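Also: PSI is a weighted mean of sequencing reads over stability bins, variants kept only with over 10 reads, mCherry proximal and sfGFP distal, peptide attached via GGGS linker.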

Sequence	protein stability index
VVCVGAEVGEGG	0.7197 ± 0.0067
VVEKKKKKKNNK	0.73 ± 0.041
VVGGAWTEAGGG	0.632 ± 0.035
VVHGIGLIYTGG	0.68 ± 0.041
VVHVGVWGLGRG	0.64819 ± 0.00032
VVIFYSSESRRR	0.724 ± 0.03
VVISRTPAALES	0.697 ± 0.013
VVLCAALHRTYG	0.638 ± 0.012
VVLGGGVGRGCW	0.691 ± 0.13
VVPYRCQRLGDG	0.686 ± 0.061
VVRARLYVWWLG	0.664 ± 0.13
VVRGPSGAGRAG	0.665 ± 0.052
VVRWRMGLFGGR	0.654 ± 0.013
VVSAIISGLSIK	0.733 ± 0.0088
VVSDGRSYGLLK	0.73703 ± 0.00014
VVSEQLDRGMRF	0.694 ± 0.039
VVVRRSEVGGRV	0.65 ± 0.095
VVWGAWGGWGCW	0.726 ± 0.056
VVWSGWGCGGVR	0.619 ± 0.015
VWAVGRATARER	0.6969 ± 0.0025
VWAWGDGGGAVV	0.728 ± 0.051
VWDGLAVAATCS	0.597 ± 0.085
VWFEAGLGWFFL	0.721 ± 0.047
VWFGAGSYSFLC	0.5683 ± 0.0016
VWGGGLLVGAGW	0.669 ± 0.035

Sequence	protein stability index
VWRSTVRVSRAG	0.763 ± 0.051
VWSWVDSFCRGG	0.744 ± 0.042
VWVEVDGLLVVV	0.534 ± 0.043
VWVQISGRLNWK	0.709 ± 0.06
VWVVGADEDAVR	0.698 ± 0.03
VYFFSSIFRCFV	0.544 ± 0.048
VYFLWPRFVCDA	0.585 ± 0.044
VYLRSMLSLNIR	0.676 ± 0.051
VYPRNLPGSVPL	0.666 ± 0.02
VYPRRLLPSRGL	0.668 ± 0.098
VYQLTKNERVIK	0.643 ± 0.1
VYRRGESRTHGD	0.682 ± 0.018
VYSVDGGKTVLD	0.669 ± 0.028
VYTIHECADMLY	0.712 ± 0.045
VYVLHNVMCSSD	0.632 ± 0.051
VYYDSVVSLSGA	0.661 ± 0.079
WAARPSATGDRC	0.664 ± 0.042
WAAWGGGEAWGV	0.698 ± 0.047
WAFYFPWSSSLM	0.726 ± 0.036
WAGGANGEWGEW	0.8097 ± 0.0021
WARGGRVDDGGG	0.62 ± 0.057
WATPRPCQMVPS	0.567 ± 0.038
WAVLLQGSRDLW	0.788 ± 0.016
WCAGLATAIQLR	0.636 ± 0.053
WCECGVWVGLWG	0.732 ± 0.059

Sequence	protein stability index
WCGLRVGGGGMW	0.74 ± 0.017
WCGNGFVKKGGL	0.655 ± 0.007
WCKLLGGSVFGE	0.671 ± 0.023
WCLRVRASGRGG	0.786 ± 0.3
WCRGGGWPVTGL	0.7 ± 0.042
WCVCGVWVGLWG	0.71 ± 0.076
WCVLLMALFRWW	0.625 ± 0.025
WDLPKTLCSKYT	0.727 ± 0.013
WDQLPVNMVYQC	0.571
WDSLGGCRARLS	0.7 ± 0.013
WFCRFTGGRRLL	0.671 ± 0.044
WFDCGSACFGYL	0.782 ± 0.056
WFGPPAPRKVSP	0.852 ± 0.042
WFGSPRCVGGQL	0.703 ± 0.03
WFQRGKIPIHKV	0.667 ± 0.074
WFRMTFLSPLHD	0.797 ± 0.044
WGGGGGKEAVVR	0.6554 ± 0.0042
WGGGGGRGGMGG	0.693 ± 0.055
WGGGGGVWGHVV	0.603 ± 0.034
WGGSGRVWVKLG	0.696 ± 0.055
WGGSSPHRTEPR	0.666 ± 0.058
WGGWGLRVSCGT	0.681 ± 0.052
WGLGFRLVFWSV	0.5289 ± 0.0022
WGPCCSTLLFFV	0.423 ± 0.12
WGRFGYGPAVVG	0.735 ± 0.063

Sequence	protein stability index
WGRRGGVARGRA	0.787 ± 0.1
WGRRVSPVRDGR	0.671 ± 0.032
WGSISVEGRVAG	0.715 ± 0.015
WGTGGRLGVGHV	0.697 ± 0.056
WGVGGVLEVLLG	0.522 ± 0.022
WGVGRDVVLWGA	0.895 ± 0.14
WGVSARDPVFKE	0.654 ± 0.018
WGVSGAGPHLLL	0.74 ± 0.038
WGWGGGRGGMGG	0.716 ± 0.022
WGWPHQRDGFLG	0.66 ± 0.007
WHWDGVGTLVIW	0.605 ± 0.14
WLCLARGRLGLH	0.583 ± 0.011
WLESHVSRGLTT	0.64 ± 0.021
WLGRGGACGVRW	0.696 ± 0.05
WLGTIVCGRGWW	0.7003 ± 0.006
WLLGLCLFGFHR	0.577 ± 0.013
WLLKGTVTLMMW	0.5687 ± 0.0031
WLPPPPYSPFSL	0.724 ± 0.059
WLREDCLLSRGR	0.7 ± 0.0016
WLRSLLKENLVR	0.5422 ± 0.0016
WLRVLFPSSPGD	0.607 ± 0.04
WLSAGAWGAVIL	0.788 ± 0.034
WPLISPFSKHRW	0.696 ± 0.055
WPLVLSYRKESA	0.803 ± 0.22
WQGARLSSREGH	0.694 ± 0.038

Sequence	protein stability index
WQLKGNGGREAL	0.671 ± 0.034
WQNKKDNGKIRG	0.724 ± 0.11
WRCYCFLGLDEG	0.653 ± 0.029
WRPLIPPSLPPL	0.6977 ± 0.0069
WRQRVWRGGWKG	0.594 ± 0.031
WSGGWAGGMLNE	0.641 ± 0.027
WSIGGKSFVGIA	0.676 ± 0.031
WSISKSTWGPIG	0.673 ± 0.023
WSQGAIDRLDLS	0.641 ± 0.13
WSRRGGWEKYGV	0.676 ± 0.032
WSSSVGIKGAWF	0.707 ± 0.022
WSVGRVGGCGAR	0.704 ± 0.052
WTCMNRRMREED	0.739 ± 0.072
WTNRVPLYALPT	0.657 ± 0.0081
WVGAGGGSGYGR	0.677 ± 0.018
WVGKCLCRGLCD	0.668 ± 0.0096
WVMREIVFGSLY	0.698 ± 0.017
WVNWRWRAVVPG	0.6188 ± 0.0025
WVSSRSSVVARG	0.653 ± 0.043
WVTQHAMEVGRI	0.712 ± 0.084
WVVGGVRGVWGA	0.729 ± 0.011
WWAERCLGGGRG	0.744 ± 0.018
WWAGGCGGERGG	0.686 ± 0.018
WWGAKLDGKVSE	0.813 ± 0.0089
WWGCVGRVGVEG	0.726 ± 0.1

Sequence	protein stability index
WWGGGVRGGMGG	0.7578 ± 0.002
WWGRWGASVGRG	0.686 ± 0.033
WWRGSVWHREVA	0.701 ± 0.0088
WYGPKLVGGSIV	0.722 ± 0.12
WYITVMSHFNET	0.753 ± 0.009
WYWGGWMRGCGW	0.75 ± 0.048
YAGPCRRHSGGC	0.679 ± 0.082
YALLLPRSVFQF	0.517 ± 0.038
YASDGNSRLRAN	0.691 ± 0.02
YASKQNPKPPSP	0.682 ± 0.039
YASLSGSRYRPG	0.62 ± 0.051
YCGGWCGGWEIG	0.709 ± 0.0075
YCGGWWGGWEIG	0.719 ± 0.0036
YCHTSISPNSHL	0.787 ± 0.096
YCLLGHIYKPLS	0.679 ± 0.011
YCRVRYKKSVLR	0.694 ± 0.015
YCTVDECWGRWH	0.709 ± 0.08
YCWGYVVARPSV	0.695 ± 0.017
YEMTGHVVTHEI	0.69 ± 0.075
YFGSHLILSRAT	0.665 ± 0.11
YFNNVFQVAGGF	0.639 ± 0.025
